The subject of experiment [1] is human breast cancer cells. As to conditions: Singh D et al., 2000; Bigioni M. et al., 2005; cited from earlier work.
The next experiment deals with NK1 receptor (human) (UniProt P25103). Nature of the experiment: cell-based or functional assay.
In another experiment the target is NK2 receptor (human) (UniProt P21452). Nature of the experiment: cell-based or functional assay.
The target in a further experiment is NK3 receptor (human) (UniProt P29371). Briefly: cell-based or functional assay.
For experiment [2], the target named is NK1, NK2 and NK3 receptors. Nature of the experiment: cell-based or functional assay.

These results are taken from US20130280259A1, “USE OF ANTIBODIES AGAINST NK1, NK2 AND/OR NK3 RECEPTORS IN CANCER TREATMENT” (SERVICIO ANDALUZ DE SALUD, priority 2010, published 2013).

Positions of bridges follow the written chain, without caps; N, C: chain ends. Non-standard residues stand in square brackets, D forms with d. Residues, ends and D or L forms follow the SMILES beside them. *: point of attachment. NH(β-GlcNAc) = CC(=O)N[C@@H]1[C@@H](O)[C@H](O)[C@@H](CO)O[C@H]1N*; Dap = NC[C@H](N)C(=O)O

UniProt P25103, sequence (P25103 whole entry): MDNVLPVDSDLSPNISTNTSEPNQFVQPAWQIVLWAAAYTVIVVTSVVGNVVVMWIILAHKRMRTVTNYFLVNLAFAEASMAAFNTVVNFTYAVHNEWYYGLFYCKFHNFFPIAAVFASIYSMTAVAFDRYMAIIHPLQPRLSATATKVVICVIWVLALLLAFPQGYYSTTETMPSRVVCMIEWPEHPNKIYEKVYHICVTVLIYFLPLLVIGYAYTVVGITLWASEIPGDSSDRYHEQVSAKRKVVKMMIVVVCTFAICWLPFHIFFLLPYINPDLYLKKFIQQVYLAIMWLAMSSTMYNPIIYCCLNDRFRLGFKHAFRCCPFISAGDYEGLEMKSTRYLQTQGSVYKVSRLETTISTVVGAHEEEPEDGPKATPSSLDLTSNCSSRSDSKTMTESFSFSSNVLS
UniProt P29371, sequence (P29371 whole entry): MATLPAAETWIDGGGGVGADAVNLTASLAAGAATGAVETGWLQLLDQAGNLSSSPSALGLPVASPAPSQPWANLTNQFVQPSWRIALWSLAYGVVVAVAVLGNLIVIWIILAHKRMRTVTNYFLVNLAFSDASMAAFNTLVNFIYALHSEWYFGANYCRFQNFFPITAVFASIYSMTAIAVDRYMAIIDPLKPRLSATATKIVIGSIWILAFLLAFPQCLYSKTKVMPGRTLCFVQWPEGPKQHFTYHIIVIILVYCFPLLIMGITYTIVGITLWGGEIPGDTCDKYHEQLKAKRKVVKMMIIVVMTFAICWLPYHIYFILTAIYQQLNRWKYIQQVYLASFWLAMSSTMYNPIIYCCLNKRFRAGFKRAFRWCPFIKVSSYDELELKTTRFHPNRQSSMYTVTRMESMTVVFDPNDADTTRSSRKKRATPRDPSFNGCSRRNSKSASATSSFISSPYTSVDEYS
UniProt P21452, sequence (P21452 whole entry): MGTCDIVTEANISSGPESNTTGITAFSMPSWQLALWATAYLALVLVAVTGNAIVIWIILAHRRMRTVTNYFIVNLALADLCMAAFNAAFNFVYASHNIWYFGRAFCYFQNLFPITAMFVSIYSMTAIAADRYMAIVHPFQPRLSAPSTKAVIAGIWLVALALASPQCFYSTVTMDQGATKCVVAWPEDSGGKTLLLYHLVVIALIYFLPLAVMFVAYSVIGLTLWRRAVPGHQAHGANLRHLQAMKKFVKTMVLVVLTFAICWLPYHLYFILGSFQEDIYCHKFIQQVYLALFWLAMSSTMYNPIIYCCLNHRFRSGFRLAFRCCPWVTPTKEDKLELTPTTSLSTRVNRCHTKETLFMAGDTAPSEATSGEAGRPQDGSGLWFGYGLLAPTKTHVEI

As to `CC(=O)NC1(c2ccccc2)CCN(CC[C@H](CN(C)C(=O)c2ccccc2)c2ccc(Cl)c(Cl)c2)CC1` [SR 48968], the Blocking cell proliferation result in experiment [1] is “efficacy in blocking cell proliferation”.
For the molecule “anti-NK1 antibody (Sigma-Aldrich, product number S8305)”, in the experiment with NK1 receptor (human), the % of fibroblast cells with expression for MMP-3; anti-NK1 (1/100) and Substance P (1 µM) stood at 0%; the % of fibroblast cells with expression for MMP-7; anti-NK1 (1/100) and Substance P (1 µM) is 0%; the % of fibroblast cells with expression for MMP-9; anti-NK1 (1/100) and Substance P (1 µM) is 0%; the % of fibroblast cells with expression for MMP-11; anti-NK1 (1/100) and Substance P (1 µM) turned out to be 0%. In the experiment with NK1 receptor (human), the % of fibroblast cells with expression for MMP-13; anti-NK1 (1/100) and Substance P (1 µM) was 0%; the % of fibroblast cells with expression for MMP-14; anti-NK1 (1/100) and Substance P (1 µM) was found to be 0%; the % of fibroblast cells with expression for SPARC; anti-NK1 (1/100) and Substance P (1 µM) is 0%; the % of fibroblast cells with expression for TGF-alpha; anti-NK1 (1/100) and Substance P (1 µM) worked out at 0%. Moreover, in the experiment with NK1 receptor (human), the % of fibroblast cells with expression for TGF-beta 1; anti-NK1 (1/100) and Substance P (1 µM) came out at 0%; the % of fibroblast cells with expression for TGF-beta 2; anti-NK1 (1/100) and Substance P (1 µM) turned out to be 0%; the % of fibroblast cells with expression for TGF-beta 3; anti-NK1 (1/100) and Substance P (1 µM) was determined as 0%; the % of mononuclear cells with expression for NF-kB; anti-NK1 (1/100) and Substance P (1 µM) came out at 0%. In the experiment with NK1 receptor (human), the % of mononuclear cells with expression for TGF-beta; anti-NK1 (1/100) and Substance P (1 µM) amounted to 0%; the % of polymorphonuclear cells with expression for NF-kB; anti-NK1 (1/100) turned out to be 0%; the % of polymorphonuclear cells with expression for TGF-beta; anti-NK1 (1/100) amounted to 0%.
As for “anti-NK2 antibody (Sigma-Aldrich, product number HPA012084)”, in the experiment with NK2 receptor (human), the % of fibroblast cells with expression for MMP-3; anti-NK2 (1/100) and Substance P (1 µM) came out at 0%; the % of fibroblast cells with expression for MMP-7; anti-NK2 (1/100) and Substance P (1 µM) was 0%; the % of fibroblast cells with expression for MMP-9; anti-NK2 (1/100) and Substance P (1 µM) stood at 0%; the % of fibroblast cells with expression for MMP-11; anti-NK2 (1/100) and Substance P (1 µM) was found to be 0%. Besides, in the experiment with NK2 receptor (human), the % of fibroblast cells with expression for MMP-13; anti-NK2 (1/100) and Substance P (1 µM) was found to be 0%; the % of fibroblast cells with expression for MMP-14; anti-NK2 (1/100) and Substance P (1 µM) turned out to be 0%; the % of fibroblast cells with expression for SPARC; anti-NK2 (1/100) and Substance P (1 µM) amounted to 0%; the % of fibroblast cells with expression for TGF-alpha; anti-NK2 (1/100) and Substance P (1 µM) was 0%. Moreover, in the experiment with NK2 receptor (human), the % of fibroblast cells with expression for TGF-beta 1; anti-NK2 (1/100) and Substance P (1 µM) is 0%; the % of fibroblast cells with expression for TGF-beta 2; anti-NK2 (1/100) and Substance P (1 µM) stood at 0%; the % of fibroblast cells with expression for TGF-beta 3; anti-NK2 (1/100) and Substance P (1 µM) turned out to be 0%; the % of mononuclear cells with expression for NF-kB; anti-NK2 (1/100) and Substance P (1 µM) was determined as 0%. In the experiment with NK2 receptor (human), this molecule gave a % of mononuclear cells with expression for TGF-beta; anti-NK2 (1/100) and Substance P (1 µM) of 0%; a % of polymorphonuclear cells with expression for NF-kB; anti-NK2 (1/100) of 0%; a % of polymorphonuclear cells with expression for TGF-beta; anti-NK2 (1/100) of 0%.
In the experiment with NK3 receptor (human), “anti-NK3 antibody (Sigma-Aldrich, product number HPA009418)” had a % of fibroblast cells with expression for MMP-3; anti-NK3 (1/100) and Substance P (1 µM) of 0%; a % of fibroblast cells with expression for MMP-7; anti-NK3 (1/100) and Substance P (1 µM) of 0%; a % of fibroblast cells with expression for MMP-9; anti-NK3 (1/100) and Substance P (1 µM) of 0%; a % of fibroblast cells with expression for MMP-11; anti-NK3 (1/100) and Substance P (1 µM) of 0%. In addition, in the experiment with NK3 receptor (human), the % of fibroblast cells with expression for MMP-13; anti-NK3 (1/100) and Substance P (1 µM) amounted to 0%; the % of fibroblast cells with expression for MMP-14; anti-NK3 (1/100) and Substance P (1 µM) stood at 0%; the % of fibroblast cells with expression for SPARC; anti-NK3 (1/100) and Substance P (1 µM) was found to be 0%; the % of fibroblast cells with expression for TGF-alpha; anti-NK3 (1/100) and Substance P (1 µM) turned out to be 0%. In the experiment with NK3 receptor (human), this molecule came in with a % of fibroblast cells with expression for TGF-beta 1; anti-NK3 (1/100) and Substance P (1 µM) of 0%; a % of fibroblast cells with expression for TGF-beta 2; anti-NK3 (1/100) and Substance P (1 µM) of 0%; a % of fibroblast cells with expression for TGF-beta 3; anti-NK3 (1/100) and Substance P (1 µM) of 0%; a % of mononuclear cells with expression for NF-kB; anti-NK3 (1/100) and Substance P (1 µM) of 0%. In the experiment with NK3 receptor (human), the % of mononuclear cells with expression for TGF-beta; anti-NK3 (1/100) and Substance P (1 µM) came out at 0%; the % of polymorphonuclear cells with expression for NF-kB; anti-NK3 (1/100) was 0%; the % of polymorphonuclear cells with expression for TGF-beta; anti-NK3 (1/100) came out at 0%.
For `CC(=O)N[C@@H]1[C@@H](O)[C@H](O)[C@@H](CO)O[C@H]1NC(=O)C[C@@H]1NC(=O)[C@H](CC(C)C)NC(=O)[C@@H]2CNC(=O)C[C@H](NC1=O)C(=O)N[C@@H](Cc1c[nH]c3ccccc13)C(=O)N[C@@H](Cc1ccccc1)C(=O)N2` [MEN 11420, nepadutant] (cyclo(D(NH(β-GlcNAc))DWF[Dap]L); lactam 2-5), the Blocking cell proliferation entry in experiment [1] is listed as “efficacy in blocking cell proliferation”.
For `Cc1ccc(CC(=O)N(C)[C@H](Cc2ccc3ccccc3c2)C(=O)N[C@@H]2CCCC[C@@H]2NC(=O)c2c[nH]c3ccccc23)cc1` [MEN 11467], the Blocking cell proliferation result in experiment [1] is on record as “efficacy in blocking cell proliferation”.

B1: Substance P (product no. S6883; Sigma-Aldrich) (peptide, UniProt P20366 58-68, looked up)
peptide: RPKPQQFFGLM
In the case of B1, in experiment [2], the % of fibroblast cells with expression for MMP-3; Substance P (1 µM) was found to be 33.9%, the % of fibroblast cells with expression for MMP-7; Substance P (1 µM) stood at 46.2%, the % of fibroblast cells with expression for MMP-9; Substance P (1 µM) was found to be 35.5% and the % of fibroblast cells with expression for MMP-11; Substance P (1 µM) came to 7.8%. Further, in experiment [2], the % of fibroblast cells with expression for MMP-13; Substance P (1 µM) amounted to 17.1%, the % of fibroblast cells with expression for MMP-14; Substance P (1 µM) was found to be 47.3%, the % of fibroblast cells with expression for SPARC; Substance P (1 µM) was 16% and the % of fibroblast cells with expression for TGF-alpha; Substance P (1 µM) came out at 16.5%. In experiment [2], this molecule returned a % of fibroblast cells with expression for TGF-beta 1; Substance P (1 µM) of 18.4%, a % of fibroblast cells with expression for TGF-beta 2; Substance P (1 µM) of 24.6%, a % of fibroblast cells with expression for TGF-beta 3; Substance P (1 µM) of 23.1% and a % of mononuclear cells with expression for NF-kB; Substance P (1 µM) of 25.7%. In experiment [2], this molecule showed a % of mononuclear cells with expression for TGF-beta; Substance P (1 µM) of 16.4%, a % of polymorphonuclear cells with expression for NF-kB; Substance P (1 µM) of 17.5% and a % of polymorphonuclear cells with expression for TGF-beta; Substance P (1 µM) of 36.8%.
